According to patent publication US20250277031A1 (BEIJING HANMI PHARMACEUTICAL, published 2025):

Assays:
[1] = target: T1, rat CD47 on rat red blood cells (rat, UniProt P97829 19-303); assay: flow cytometry on rat RBCs
T1 construct: whole, on cells; also called Rat RBCs
T1 sequence (looked up): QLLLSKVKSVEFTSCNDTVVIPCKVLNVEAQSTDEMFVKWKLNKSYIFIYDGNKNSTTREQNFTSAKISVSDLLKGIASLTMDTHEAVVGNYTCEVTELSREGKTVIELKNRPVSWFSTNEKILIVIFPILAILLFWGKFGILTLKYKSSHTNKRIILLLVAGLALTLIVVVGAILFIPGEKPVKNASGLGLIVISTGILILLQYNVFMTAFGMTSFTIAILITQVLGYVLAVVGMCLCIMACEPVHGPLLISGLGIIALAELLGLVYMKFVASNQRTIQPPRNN
Method: The species specificity of the chimeric anti-human CD47 monoclonal antibodies was determined by flow cytometer FACS. Normal human RBCs internally donated, cynomolgus RBCs, rat RBCs and mouse RBCs were collected, washed once with cold PBS (GIBCO, Catalog number 14190) containing 2% FBS (Hyclone, Catalog number SH30084.03). The RBCs (2×10⁶ cells per tube) were resuspended in 100 μL of cold PBS containing 2% FBS, and the serially diluted anti-human CD47 antibody samples and the control CC-90002 and the isotype control were added therein. Flow tubes were incubated on ice for 30 minutes. The cells were washed twice with PBS containing 2% FBS. Then the pellets were resuspended in 200 μL of cold PBS containing 2% FBS and FITC-labeled anti-human IgG antibody diluted 1:1000 (Beijing Zhongshan Golden Bridge, Catalog number ZF0306), incubated on ice for 30 minutes in the dark. The cells were washed twice with PBS containing 2% FBS, then resuspended in 500 μL of cold PBS. The cell suspension obtained was detected and analyzed on a flow cytometer (BD, FACS Calibur), and the fluorescence intensities of the RBCs were read.

recombinant human CD47 [2] = target: T2, recombinant human CD47 (human, UniProt Q08722 19-139); assay: SPR, Biacore X100, antibody captured on Protein A chip, CD47 as analyte
T2 construct: also called antigen CD47
Description: Biacore X100 instrument (purchased from GE) was used to detect the kinetic constant of the chimeric anti-human CD47 monoclonal antibodies binding to its antigen human CD47. This instrument utilizes optical surface plasmon resonance technology to detect the association and dissociation between the molecules coated on the biochip and the molecules to be tested. The main reagent used is Protein A chip (GE Healthcare, 29-1275-57). The experimental procedure is briefly described as follows: the chimeric anti-human CD47 antibodies were diluted in running buffer (1×HBS-EP+10 mM HEPES, 150 mM NaCl, 3 mM EDTA, 0.05% surfactant P20, pH7.4). During the capture-binding phase, the antibodies at a concentration of 2 μg/mL were injected for 60 seconds at a speed of 10 μL/min. During the binding phase, the antigen CD47 was diluted into multiple concentrations with running buffer, injected for 120 seconds at a speed of 30 μL/min respectively. During the dissociation phase, running buffer was injected for 600 seconds at a speed of 10 μL/min. The regeneration condition is 10 mM glycinate solution, pH1.5. Association kinetic constants and dissociation kinetic constants were analyzed and calculated by Biacore X100 evaluation software. The association kinetic constants, dissociation kinetic constants and dissociation equilibrium constants of the chimeric anti-human CD47 antibodies were shown in Table 7.

recombinant rat CD47 = target: T3, recombinant rat CD47 (rat, UniProt P97829 19-140, limits assumed); assay: ELISA, plate coated with 1 µg/mL recombinant rat CD47, anti-human IgG-HRP, OD450
T3 sequence (looked up): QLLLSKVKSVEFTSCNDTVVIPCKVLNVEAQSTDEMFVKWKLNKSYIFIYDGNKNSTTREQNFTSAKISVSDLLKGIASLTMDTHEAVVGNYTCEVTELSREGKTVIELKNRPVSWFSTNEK
Method: (§1) Species specificity of the chimeric anti-human CD47 mAbs was determined by ELISA. A 96-well high-adsorption ELISA plate was coated with 1 μg/mL of the recombinant human CD47, cynomolgus CD47, rat CD47 and mouse CD47, at 100 μL per well using carbonate buffer solution, pH=9.6 at 4° C. overnight. The plate was washed 5 times with PBST, and then blocked using PBST with 1% BSA, 300 μL/well, and incubated at 25° C. for 1 hour, and then washed 5 times with PBST. The chimeric anti-human CD47 antibody samples serially diluted in PBST with 1% BSA were added, 100 μL/well, incubated at 25° C. for 1 hour, and then washed 5 times with PBST. The horseradish peroxidase-labeled anti-human IgG antibody (Chemicon, catalog number AP309P) diluted 1:10000 in PBST with 1% BSA was then added, 100 μL per well, and incubated at 25° C. for 1 hour. The plate was washed 5 times with PBST. The colorimetric substrate TMB was added, 100 μL/well, and developed at room temperature for 10 minutes. 1M H₂SO₄ was added, 100 μL/well, to stop the development. The absorbance at 450 nm was read on a microplate reader.

recombinant human CD47 [3] = target: T2, recombinant human CD47; assay: ELISA, plate coated with 1 µg/mL recombinant human CD47, anti-human IgG-HRP, OD450
Method: as §1

[4] = target: T4, recombinant human CD47-Fc protein (ACROBiosystems, catalog number CD7-H52A5) (human, UniProt Q08722 19-139); assay: blocking ELISA: plate coated with human CD47-Fc, 2 nM biotin-labelled SIRPα as the blocked ligand, falling OD450 curve; the sheet labels the half-maximal value EC50
T4 construct: bought; not shown: Fc part of a bought fusion protein, not described
Method: A 96-well high-adsorption ELISA plate was coated with 1 μg/mL of the recombinant human CD47-Fc (ACROBiosystems) at 100 μL per well using carbonate buffer solution, pH=9.6 at 4° C. overnight. The plate was washed 5 times with PBST, and then blocked using PBST with 1% BSA, 300 μL/well, and incubated at 25° C. for 1 hour, and then washed 5 times with PBST. The anti-human CD47 antibody samples were added, 50 μL/well, the biotin-labelled SIRPα (ACROBiosystems) was added at a concentration of 4 nM (a final concentration of 2 nM), 50 μL/well, incubated at 25° C. for 90 minutes, and then washed 5 times with PBST. The Streptavidin-HRP (BD Pharmingen, catalog number 554066) diluted 1:1000 in PBST with 1% BSA was then added, 100 μL per well, and incubated at 25° C. for 1 hour. The plate was washed 5 times with PBST. The colorimetric substrate TMB was added, 100 μL/well, and developed at room temperature for 10 minutes. 1M H₂SO₄ was added, 100 μL/well, to stop the development. The absorbance at 450 nm was read on a microplate reader.

T2 sequence (Q08722 19-139 limits assumed): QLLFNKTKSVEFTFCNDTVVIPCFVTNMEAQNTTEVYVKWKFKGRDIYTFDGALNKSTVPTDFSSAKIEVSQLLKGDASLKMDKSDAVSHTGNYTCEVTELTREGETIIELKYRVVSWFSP
T4 sequence (Q08722 19-139 limits assumed): as above

binding result [1]: no binding | Kd (recombinant human CD47 [2]): 0.693 nM | koff (recombinant human CD47 [2]): 0.000823 s⁻¹ | kon (recombinant human CD47 [2]): 1.19e+06 M⁻¹ s⁻¹ | binding result (recombinant rat CD47): no binding (tested: about 20 nM) | EC50 (recombinant human CD47 [3]): 0.086 nM | IC50 [4]: 1.86 nM
B1: chimeric anti-human CD47 monoclonal antibody mAb-18-5 (antibody, human IgG1, kappa)
heavy: not shown
light: DIVMTQSQKFMSTSVGDRVSITCKASQNVRTSIAWYQQKSGQSPKTLIYLASNRHTGVPDRFTGSGSGTDFTLTISNVQSEDLADYFCLQHWNYPFTFGSGTKLEIKRTVAAPSVFIFPPSDEQLKSGTASVVCLLNNFYPREAKVQWKVDNALQSGNSQESVTEQDSKDSTYSLSSTLTLSKADYEKHKVYACEVTHQGLSSPVTKSFNRGEC
